According to patent publication US20200392227A1 (LYVGEN BIOPHARMA, published 2020):
Numbering of substitutions follows the chain as printed.

Legend:
[1] = molecular target: T1, human FcRIIA protein (MednaBio, E1033) (human, UniProt P12318 34-218, limits assumed); assay: BLI
T1 construct: Bought; also called FcγRIIA
T1 sequence (looked up): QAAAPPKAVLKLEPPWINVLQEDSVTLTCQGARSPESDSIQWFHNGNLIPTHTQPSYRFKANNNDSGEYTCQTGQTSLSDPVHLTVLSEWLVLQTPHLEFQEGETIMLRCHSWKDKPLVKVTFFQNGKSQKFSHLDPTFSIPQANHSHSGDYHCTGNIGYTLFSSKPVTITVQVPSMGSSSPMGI
Protocol: (§1) These IgG mutants were tested for binding to a panel of human Fc receptors (FcRs), including FcRn, using the Octet Red96 System (ForteBio, Model #Red96). Human FcR proteins were purchased commercially (FcRn, MednaBio, E1032; FcRI, MednaBio, E1031; FcRIIA, MednaBio, E1033; FcRIIB/C, MednaBio, E1034; FcRIIIA-F158, MednaBio, E1036; FcRIIIA-V158, MednaBio, E1035; FcRIIIB, MednaBio, E1037). All Fey receptor assays were performed at pH 7.2; all FcRn assays were performed at pH 6. The Fey receptors were loaded onto anti-penta-HIS1K (ForteBio, Cat #18-5122) biosensors at a concentration of 20 μg/mL. The loaded biosensors was then be dipped into an 8-point 1:3 dilution series of the test IgG molecules (including controls and the mutants described herein) in PBS with 0.1% BSA, 0.02% Tween-20 (pH 7.2) at a starting concentration of 300 nM. Kinetic analysis was performed using a 1:1 binding model and global fitting.

[2] = molecular target: T2, human FcRn protein (MednaBio, E1032) (human, UniProt P55899 24-297; P61769 21-119); assay: BLI
T2 construct: Bought; assays at pH 6
T2 sequence (P55899 24-297 limits assumed, form in doubt, chain 1 of 2): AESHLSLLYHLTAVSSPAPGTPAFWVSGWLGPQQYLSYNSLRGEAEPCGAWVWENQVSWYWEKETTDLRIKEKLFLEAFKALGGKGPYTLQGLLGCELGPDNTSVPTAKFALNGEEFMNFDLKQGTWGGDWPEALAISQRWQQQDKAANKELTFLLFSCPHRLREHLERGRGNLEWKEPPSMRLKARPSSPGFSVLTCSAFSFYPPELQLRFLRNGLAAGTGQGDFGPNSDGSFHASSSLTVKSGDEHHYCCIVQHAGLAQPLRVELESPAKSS
T2 sequence (P61769 21-119 limits assumed, form in doubt, chain 2 of 2): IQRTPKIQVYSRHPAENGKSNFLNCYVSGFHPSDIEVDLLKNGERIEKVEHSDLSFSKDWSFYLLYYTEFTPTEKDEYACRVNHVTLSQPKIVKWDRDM
Protocol: as §1

[3] = molecular target: T3, human FcRIIB/C protein (MednaBio, E1034) (human, UniProt P31994 43-217, limits assumed); assay: BLI
T3 construct: Bought as FcRIIB/C; also called FcγRIIB; CD32B
T3 sequence (looked up): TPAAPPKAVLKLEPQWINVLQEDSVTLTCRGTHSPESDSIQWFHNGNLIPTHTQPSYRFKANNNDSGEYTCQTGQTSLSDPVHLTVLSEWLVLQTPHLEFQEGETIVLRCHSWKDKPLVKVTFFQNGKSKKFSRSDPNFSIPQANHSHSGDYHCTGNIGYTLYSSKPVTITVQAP
Protocol: as §1

[4] = molecular target: T4, human FcRIIIB protein (MednaBio, E1037) (human, UniProt O75015 17-200); assay: BLI
T4 construct: Bought; also called FcγRIIIB; FcgRIIIB
T4 sequence (O75015 17-200 limits assumed): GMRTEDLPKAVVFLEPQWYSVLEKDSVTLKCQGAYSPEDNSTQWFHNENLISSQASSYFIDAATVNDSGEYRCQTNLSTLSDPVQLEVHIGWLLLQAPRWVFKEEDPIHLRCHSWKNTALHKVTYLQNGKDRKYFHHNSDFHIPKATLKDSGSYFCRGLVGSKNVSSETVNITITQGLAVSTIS
Protocol: as §1

[5] = molecular target: T5, human FcRIIIA-F158 protein (MednaBio, E1036) (human, UniProt P08637 17-208); assay: BLI
T5 construct: Bought; also called FcγRIIIA(F)
T5 sequence (P08637 17-208 limits assumed): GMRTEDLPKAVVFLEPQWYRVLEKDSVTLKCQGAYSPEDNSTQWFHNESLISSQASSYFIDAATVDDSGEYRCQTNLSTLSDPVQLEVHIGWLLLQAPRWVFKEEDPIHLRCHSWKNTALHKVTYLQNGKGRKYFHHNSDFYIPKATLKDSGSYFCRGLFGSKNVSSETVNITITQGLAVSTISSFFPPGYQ
Protocol: as §1

[6] = molecular target: T6, human FcRIIIA-V158 protein (MednaBio, E1035) (human, UniProt P08637 17-208); assay: BLI
T6 construct: Bought; also called FcγRIIIA(V); FcgRIIIA(V)
T6 sequence (P08637 17-208 F176V): as the sequence (P08637 17-208 limits assumed) above, with F160V counted along it
Protocol: as §1

[7] = molecular target: T7, human FcRI protein (MednaBio, E1031) (human, UniProt P12314 16-288, limits assumed); assay: BLI
T7 construct: Bought; loaded on anti-penta-HIS biosensors; also called FcγRI
T7 sequence (P12314 16-288 limits assumed): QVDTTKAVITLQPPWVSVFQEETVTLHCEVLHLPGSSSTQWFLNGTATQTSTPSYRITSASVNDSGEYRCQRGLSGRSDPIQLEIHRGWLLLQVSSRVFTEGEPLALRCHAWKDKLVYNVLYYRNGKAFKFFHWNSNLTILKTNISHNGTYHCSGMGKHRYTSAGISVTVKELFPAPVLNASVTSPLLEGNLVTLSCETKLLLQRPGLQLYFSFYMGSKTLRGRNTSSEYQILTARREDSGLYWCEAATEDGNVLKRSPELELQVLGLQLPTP
Protocol: as §1

[8] = molecular target: T8, human FcγRIIC expressed on CHO cells (human, UniProt P31995 43-323); assay: FACS, CHO cells expressing FcγRIIC
T8 construct: whole, on cells
T8 sequence (looked up): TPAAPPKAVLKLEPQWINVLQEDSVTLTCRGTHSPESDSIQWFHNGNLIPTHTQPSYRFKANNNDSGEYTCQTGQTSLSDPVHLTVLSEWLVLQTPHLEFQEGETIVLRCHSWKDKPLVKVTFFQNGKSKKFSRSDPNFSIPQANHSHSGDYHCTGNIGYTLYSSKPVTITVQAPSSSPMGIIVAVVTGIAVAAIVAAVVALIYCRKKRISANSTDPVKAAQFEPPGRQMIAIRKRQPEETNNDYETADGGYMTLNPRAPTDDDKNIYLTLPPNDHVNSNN

[9] = molecular target: T9, human FcγRIIA(H131) expressed on CHO cells (human, UniProt P12318 34-317); assay: FACS, CHO cells expressing FcγRIIA(H131)
T9 construct: whole, on cells
T9 sequence (looked up): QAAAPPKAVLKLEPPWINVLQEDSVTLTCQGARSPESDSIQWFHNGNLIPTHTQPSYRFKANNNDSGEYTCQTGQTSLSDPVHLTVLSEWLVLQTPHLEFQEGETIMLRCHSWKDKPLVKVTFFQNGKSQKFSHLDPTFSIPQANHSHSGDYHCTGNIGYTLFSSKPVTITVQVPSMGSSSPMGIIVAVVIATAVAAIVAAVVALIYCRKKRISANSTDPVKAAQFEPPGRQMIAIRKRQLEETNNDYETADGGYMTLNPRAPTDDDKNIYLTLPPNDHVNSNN
Protocol: (§2) For FACS analysis of the IgG mutants' binding to different FcγRs, FcγR overexpressing CHO cells were harvested using trypsin-EDTA and were suspended in cold staining buffer (3% BSA in PBS). Test IgG mutants, which were diluted in staining buffer, were added into the cells. The mixture was incubated 4° C. for 2 hours, and then washed twice with cold staining buffer and re-suspended in PE-labeled anti-human IgG followed by incubation at 4° C. for 2 hours. The mixture was washed twice with staining buffer and re-suspended in 2% PFA in PBS for FACS.

[10] = molecular target: T10, human FcγRIIB expressed on CHO cells (human, UniProt P31994 43-310); assay: FACS, CHO cells expressing FcγRIIB
T10 construct: whole, on cells; also called CD32B
T10 sequence (looked up): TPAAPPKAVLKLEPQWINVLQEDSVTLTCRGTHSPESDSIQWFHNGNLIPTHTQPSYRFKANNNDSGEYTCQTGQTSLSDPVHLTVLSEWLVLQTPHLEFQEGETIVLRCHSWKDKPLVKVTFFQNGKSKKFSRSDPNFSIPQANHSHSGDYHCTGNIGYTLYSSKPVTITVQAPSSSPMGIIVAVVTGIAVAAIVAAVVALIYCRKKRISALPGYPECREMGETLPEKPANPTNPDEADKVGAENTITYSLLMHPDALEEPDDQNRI
Protocol: as §2

[11] = molecular target: T11, human FcγRIIA(R131) expressed on CHO cells (human, UniProt P12318 34-317); assay: FACS, CHO cells expressing FcγRIIA(R131)
T11 construct: whole, on cells
T11 sequence (looked up): T9 sequence (looked up) with H134R

[12] = molecular target: T12, human FcγRI expressed on CHO cells (human, UniProt P12314 16-374); assay: FACS, CHO cells expressing FcγRI
T12 construct: whole, on cells
T12 sequence (P12314 16-374): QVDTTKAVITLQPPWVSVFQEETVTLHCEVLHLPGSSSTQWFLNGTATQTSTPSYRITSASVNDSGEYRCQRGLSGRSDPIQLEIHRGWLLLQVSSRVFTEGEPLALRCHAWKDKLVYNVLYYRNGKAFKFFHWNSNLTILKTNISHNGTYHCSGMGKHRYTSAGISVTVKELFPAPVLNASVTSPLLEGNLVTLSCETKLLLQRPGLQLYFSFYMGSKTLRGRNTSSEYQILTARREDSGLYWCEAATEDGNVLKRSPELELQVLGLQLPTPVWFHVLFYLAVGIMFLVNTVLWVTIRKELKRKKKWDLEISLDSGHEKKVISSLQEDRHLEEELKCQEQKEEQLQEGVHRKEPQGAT
Summary of the method: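 Trypsin-harvested CHO cells overexpressing each FcγR were incubated 2 h at 4 °C with IgG mutants in 3% BSA/PBS. Bound IgG was detected with PE-labeled anti-human IgG (2 h, 4 °C), then cells were fixed in 2% PFA and analysed by flow cytometry.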

B1: anti-CD137 IgG1 with Fc variant G1m2 (antibody)
heavy: EVQLVQSGAEVKKPGESLRISCKGSGYSFSTYWISWVRQMPGKGLEWMGKIYPGDSYTNYSPSFQGQVTISADKSISTAYLQWSSLKASDTAMYYCARGYGIFDYWGQGTLVTVSSASTKGPSVFPLAPSSKSTSGGTAALGCLVKDYFPEPVTVSWNSGALTSGVHTFPAVLQSSGLYSLSSVVTVPSSSLGTQTYICNVNHKPSNTKVDKKVEPKSCDKTHTCPPCPAPELLGPSVFLFPPKPKDTLMISRTPEVTCVVVDVSHEDPEVKFNWYVDGVEVHNAKTKPREEQYNSTYRVVSVLTVLHQDWLNGKEYKCKVSNKALPAPIEKTISKAKGQPREPQVYTLPPSREEMTKNQVSLTCLVKGFYPSDIAVEWESNGQPENNYKTTPPVLDSDGSFFLYSKLTVDKSRWQQGNVFSCSVMHEALHNHYTQKSLSLSPGK
light: SYELTQPPSVSVSPGQTASITCSGDNIGDQYAHWYQQKPGQSPVLVIYQDKNRPSGIPERFSGSNSGNTATLTISGTQAMDEADYYCATYTGFGSLAVFGGGTKLTVLGQPKAAPSVTLFPPSSEELQANKATLVCLISDFYPGAVTVAWKADSSPVKAGVETTTPSKQSNNKYAASSYLSLTPEQWKSHRSYSCQVTHEGSTVEKTVAPTECS
notes: copies: 2 + 2
binding result [1]: no binding (tested: 300 nM)
Kd [2]: 13 nM
koff [2]: 0.0093 s⁻¹
kon [2]: 710000 M⁻¹ s⁻¹
binding result [3]: no binding (tested: 300 nM)
binding result [4]: no binding (tested: 300 nM)
binding result [5]: no binding (tested: 300 nM)
binding result [6]: no binding (tested: 300 nM)
binding result [7]: no binding (tested: 300 nM)
binding result [8]: no binding (tested: 10 ug/ml)
binding result [9]: no binding (tested: 10 ug/ml)
binding result [10]: no binding (tested: 10 ug/ml)

B2: anti-CD137 IgG2 with Fc variant G2m1 (antibody)
heavy: EVQLVQSGAEVKKPGESLRISCKGSGYSFSTYWISWVRQMPGKGLEWMGKIYPGDSYTNYSPSFQGQVTISADKSISTAYLQWSSLKASDTAMYYCARGYGIFDYWGQGTLVTVSSASTKGPSVFPLAPCSRSTSESTAALGCLVKDYFPEPVTVSWNSGALTSGVHTFPAVLQSSGLYSLSSVVTVPSSNFGTQTYTCNVDHKPSNTKVDKTVERKCCVECPPCPAPPVASVFLFPPKPKDTLMISRTPEVTCVVVDVSHEDPEVQFNWYVDGVEVHNAKTKPREEQFNSTFRVVSVLTVVHQDWLNGKEYKCKVSNKGLPAPIEKTISKTKGQPREPQVYTLPPSREEMTKNQVSLTCLVKGFYPSDIAVEWESNGQPENNYKTTPPMLDSDGSFFLYSKLTVDKSRWQQGNVFSCSVMHEALHNHYTQKSLSLSPGK
light: B1 light
notes: copies: 2 + 2
binding result [11]: no binding (tested: 10 ug/ml)
binding result [1]: no binding (tested: 300 nM)
Kd [2]: 5.5 nM
koff [2]: 0.00096 s⁻¹
kon [2]: 170000 M⁻¹ s⁻¹
binding result [3]: no binding (tested: 300 nM)
binding result [5]: no binding (tested: 300 nM)
binding result [6]: no binding (tested: 300 nM)
binding result [7]: no binding (tested: 300 nM)
binding result [8]: no binding (tested: 10 ug/ml)
binding result [12]: no binding (tested: 10 ug/ml)
binding result [9]: no binding (tested: 10 ug/ml)
binding result [10]: no binding (tested: 10 ug/ml)
